Results published in publication PMC8983318, “Deciphering the structure of Arabidopsis thaliana 5-enol-pyruvyl-shikimate-3-phosphate synthase: An essential step toward the discovery of novel inhibitors to supersede glyphosate” (Computational and Structural Biotechnology Journal, 2022).

T1: 5-enol-pyruvyl-shikimate-3-phosphate synthase (AtEPSPS) (Arabidopsis thaliana, UniProt P05466)
T1 construct: gene At2g45300; residues 77-520 (starts from Lys77, preceded by Ser-Asn-Ala)
T1 sequence (P05466 77-520): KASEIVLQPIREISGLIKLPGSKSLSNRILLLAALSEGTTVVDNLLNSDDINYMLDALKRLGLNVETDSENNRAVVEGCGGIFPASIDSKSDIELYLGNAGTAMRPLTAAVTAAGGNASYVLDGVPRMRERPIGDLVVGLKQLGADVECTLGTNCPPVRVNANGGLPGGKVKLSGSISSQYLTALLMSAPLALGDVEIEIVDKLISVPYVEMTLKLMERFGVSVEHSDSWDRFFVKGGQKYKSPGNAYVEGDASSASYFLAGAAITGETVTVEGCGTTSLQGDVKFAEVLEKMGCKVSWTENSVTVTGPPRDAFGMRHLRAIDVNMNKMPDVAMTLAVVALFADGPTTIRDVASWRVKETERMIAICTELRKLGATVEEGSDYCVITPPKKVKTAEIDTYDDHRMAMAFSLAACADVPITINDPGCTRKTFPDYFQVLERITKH

B1: 5-enol-pyruvyl-shikimate-3-phosphate synthase (AtEPSPS) (Arabidopsis thaliana) (protein)
chain: T1 sequence (P05466 77-520)
notes: residues 77-520 (starts from Lys77, preceded by Ser-Asn-Ala)

Assays:
[1] = target: T1, 5-enol-pyruvyl-shikimate-3-phosphate synthase (AtEPSPS); assay: malachite green phosphate-release assay, Lineweaver-Burk analysis (Ki vs PEP about […]; Ki vs S3P about […]; IC50 about […]); assay type: biochemical
purified protein = substrate: C=C(OP(=O)(O)O)C(=O)O; assay: purified protein; settings: glyphosate is competitive with respect to PEP
[2] = substrate: O=C(O)C1=C[C@@H](OP(=O)(O)O)[C@@H](O)[C@H](O)C1; assay: steady-state kinetics of the purified enzyme, KM(app), malachite green assay; assay type: biochemical, Arabidopsis thaliana

Molecule | Ki [1] | Km (purified protein) | Km [2]
O=C(O)CNCP(=O)(O)O [glyphosate, N-[phosphonomethyl]glycine] | ~1000 nM | – | –
B1 | – | 185 µM | 200 µM
